Biological target: T1, wild-type human CCR7 (pcDNA3.1 Neo-hCCR7, 20100121357) (human, UniProt P32248 25-378)
T1 construct: Expressed on transfected 293T, CHO AM1/D or HEK293T cells; also called huCCR7; CCR7 receptor
T1 sequence: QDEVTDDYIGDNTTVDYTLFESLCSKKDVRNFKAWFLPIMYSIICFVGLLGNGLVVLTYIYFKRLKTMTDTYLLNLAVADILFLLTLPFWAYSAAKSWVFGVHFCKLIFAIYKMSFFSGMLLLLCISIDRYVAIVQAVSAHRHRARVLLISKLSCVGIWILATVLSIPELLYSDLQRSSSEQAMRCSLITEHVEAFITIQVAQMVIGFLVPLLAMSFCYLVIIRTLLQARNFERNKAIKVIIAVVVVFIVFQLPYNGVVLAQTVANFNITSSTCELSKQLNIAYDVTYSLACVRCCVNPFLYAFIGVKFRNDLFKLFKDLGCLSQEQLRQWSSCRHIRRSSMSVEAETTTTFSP
Experiment: hybridoma screening on cells expressing human CCR7

B1: antibody 6B4.1 (antibody, V domains shown)
VH: QVQLVESGGGVVQPGRSLRLSCAASGFTFSSYGMHWVRQAPGKGLEWVAVIWYDGSKKYYADSVKGRFTISRDNSKNTLYLQMNRLRAEDTAVYYCARDGGIAVFLQDNWFDPWGQGTLVTVSS
VL: SYELTQPPSVSVSPGQRARITCSGDKLGDKYASWYQQKPGQSPLLVIYQDSKRPSGIPERFSGSNSGNTATLTISGTQAMDEADYYCQAWGSSTVIFGGGTKLTVLG
notes: Human antibody from XenoMouse hybridoma; Light = 2 and heavy = 42 is inferred from the order of the listing (light chains first)
binding result: binds
